Reference: the supplement of paper PMC12764529
± gives the half width of the 95% confidence interval.

Key:
[1] = folding stability dG unfold from trypsin proteolysis; higher = more stable
Method: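 Folding stability of de novo designed mini-proteins (<80 aa, no Cys; designed by TrROS, TrMRF, ProteinMPNN and the joint model) was measured by cDNA display proteolysis with trypsin and chymotrypsin. Each protease was used at 11 concentrations in a threefold dilution series plus a no-protease condition. K50 was inferred by Bayesian fitting of sequencing counts, and dG unfold was derived against a sequence-predicted unfolded-state K50 (Tsuboyama et al. method). Sequences shown include variable-length N-terminal GS-type padding (SAGGSAGG...) inside a display construct carrying a PA tag. Rows were kept only if the AF2 dimer inter-PAE was >15, to exclude likely homo-oligomers.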

[2] = folding stability dG unfold (combined trypsin and chymotrypsin); higher = more stable
Procedure, shortened: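 Unfolding free energy was derived, per protease or combined, against a sequence-predicted unfolded-state K50 and a shared folded-state K50, starting from K50 inferred by Bayesian fitting of sequencing counts. Digestion with trypsin and chymotrypsin was carried out on designed mini-proteins under 80 residues without cysteine in a PA-tagged cDNA display construct. Only designs with AlphaFold2 dimer inter-PAE above 15 were kept.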

Sequence	folding stability dG unfold [1]	folding stability dG unfold [2]
SAGGGEVKKVTYVVVIELPPDPETGEPHPLPLVLEREYPADDPEAVESDIKKALDEIDIPEEAKEALSAGGS [r16_40_TrMRF]	0.403 ± 0.083 kcal/mol	0.123 ± 0.32 kcal/mol
SAGGSAGGSAGATVLQQGTATPPDGTTVTFNYNITLPSDVLISVDKNPPNPDLVTKIEAGSAGGSAGGSAGG [r11_781_JUSTAS]	0.154 ± 0.029 kcal/mol	-0.197 ± 0.4 kcal/mol
SAGGSAGGSAGGSKKTAVLKVGDKWIPLEIDEDKVTLIYPDGKKEEISLEDIPENTISDASAGGSAGGSAGG [r7_748_TrMRF]	0.0901 ± 0.064 kcal/mol	-0.212 ± 0.11 kcal/mol
SAGGSAVPKSDPVIRIKVKYPSNPQVITVPRSEIVEMEVGPPENIMTIKNPKTGKEYPATLLEILASAGGSA [r15_495_JUSTAS]	-0.531 ± 0.23 kcal/mol	< -1 kcal/mol
SAGGSAIRIEPDEDGYIKIEKPSPPGEPASELIEELKDFFPNWEVETHPHPNGRAEIIFRIPPDQFSAGGSA [r15_1047_TrROS]	0.244 ± 0.077 kcal/mol	-0.132 ± 0.15 kcal/mol
SAGGSAGGSAGGLADLLKGKTFTVTFPEGDKPYPATFEPTADDTVRVGFPDGDSYPVPAAYQSAGGSAGGSA [r18_169_TrMRF]	-0.466 ± 0.2 kcal/mol	< -1 kcal/mol
SAGGSAGGSAGGMTEYVPGEGKVLVTYPDGTTKVVPVDPATPEEFRAELEAAGVPEIKPLSAGGSAGGSAGG [r7_139_JUSTAS]	0.762 ± 0.027 kcal/mol	0.198 ± 0.085 kcal/mol
SAGGSAGGGLSASDTVTFPDGTVVTVAPDATVTITVPAPPDAAGNLTSTVTRTVTVAPGTRVLLSAGGSAGG [r6_90_JUSTAS]	-0.907 ± 0.41 kcal/mol	< -1 kcal/mol
SAGGPKEIIKEIAEKYGITEIMPWDDMKNMPPENPNKIHIWPDPEGHYMVMIRAPNGNKKSIEFPIESAGGS [r16_686_TrROS]	-1.02 ± 0.3 kcal/mol	< -1 kcal/mol
SAGWKLKIESPNGAEIEINPESGMIDVKNPDNGQPWSVMIPPENPGEINIFNPGDGEPLQPFKIDEIEPSAG [r5_761_TrROS]	0.337 ± 0.23 kcal/mol	0.111 ± 0.41 kcal/mol
SAGGSAGGTIIDRIKELFGPGMKINIQEHPSEPYYRIRIKNPGFGQKREIHVPPDSIEDILDQISAGGSAGG [r6_612_TrROS]	0.538 ± 0.33 kcal/mol	0.202 ± 0.36 kcal/mol
SAGGSNPGDPEQVPKVKIKITYPDNGKEFTIPVEELRNGPIEEAVSEIANEARERYPGHPLRIEPVSAGGSA [r2_392_TrROS]	-0.836 ± 0.41 kcal/mol	< -1 kcal/mol
LKITLPGGAEVTEIDDIKVSSDGYIELNVRVRNPDNDVEVPVPVYIPVPPVPPVPVKVSFIPGTGKLVVDDS [r1_411_TrMRF]	0.0956 ± 0.11 kcal/mol	< -1 kcal/mol
SAGGSAGGSAGLVKLKDKNGKLITLEVKEVEVVEVKEVTLKPKPKPKKTLKLSEEELKKLSAGGSAGGSAGG [r17_484_TrROS_Hall]	-0.143 ± 0.075 kcal/mol	-0.494 ± 0.25 kcal/mol
SAGGSAGGSVKVTTEPLPNGERLVTVTAYLKSKPYPVLMPYPASATPEQVKETALRIEKELEKSAGGSAGGS [r12_69_TrMRF]	-0.999 ± 0.49 kcal/mol	< -1 kcal/mol
SAGGSAGGSDPVVIPVPMDDFSKETIKNFIDEAPDDNRPIQMNFPNGKPIYIQVEPDGDIKPVSAGGSAGGS [r12_1054_TrROS]	0.557 ± 0.041 kcal/mol	< -1 kcal/mol
SAGGSAGGSAGGPSDVTLLEEEVEELPNGTIKTRYTFKLPNGELAEAESTTPLEGPFHHSAGGSAGGSAGGS [r10_532_JUSTAS]	-0.0802 ± 0.2 kcal/mol	-0.463 ± 0.26 kcal/mol
GKVLAVPVSYDPETGTVTVLEVKDTGTTLATLKPLPVVDISREELEKLAKGLAEENPELKELAEKLVEELAS [r1_330_TrMRF]	-0.145 ± 0.075 kcal/mol	-0.197 ± 0.35 kcal/mol
SAGGNPDWIPIQVPFEDPGDQDAMKKLVEELADIFLDEGIKPIEVEHTNPGHYSVWIPFDGKSIRIHSAGGS [r16_703_TrROS]	-0.37 ± 0.13 kcal/mol	-0.888 ± 0.38 kcal/mol
SAGDWMMVEMTVDFPPDQITEEEIKQALQEHFGEVEIDWNPGDGRIPITVYMPPGDMNKIQDALKEAGLSAG [r5_378_TrROS]	0.755 ± 0.053 kcal/mol	0.218 ± 0.19 kcal/mol
